Measurements taken from publication PMC8605023 (Nature Communications, 2021).
Like-named read-outs stand apart in the source and are kept apart here. Ends that are not written are not given here. * marks the point of attachment. FITC = O=C1OC2(c3ccc(O)cc3Oc3cc(O)ccc32)c2ccc(NC(=S)*)cc21

Assays:
Details in all cases: both partners purified
[1] = target: T1, Ezrin FERM domain (human, UniProt P15311 2-296)
T1 construct: also called EZR FERM
T1 sequence (P15311 2-296): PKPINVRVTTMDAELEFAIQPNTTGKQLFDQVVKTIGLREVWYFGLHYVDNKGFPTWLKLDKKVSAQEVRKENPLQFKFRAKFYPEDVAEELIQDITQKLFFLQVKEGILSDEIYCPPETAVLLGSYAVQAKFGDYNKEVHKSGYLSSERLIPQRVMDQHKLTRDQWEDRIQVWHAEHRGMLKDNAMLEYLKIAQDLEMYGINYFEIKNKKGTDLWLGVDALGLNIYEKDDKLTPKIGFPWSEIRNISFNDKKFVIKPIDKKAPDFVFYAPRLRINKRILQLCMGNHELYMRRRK

[2] = target: T2, Radixin FERM domain (human, UniProt P35241 5-295)
T2 construct: also called RDX; RDX FERM
T2 sequence (P35241 5-295): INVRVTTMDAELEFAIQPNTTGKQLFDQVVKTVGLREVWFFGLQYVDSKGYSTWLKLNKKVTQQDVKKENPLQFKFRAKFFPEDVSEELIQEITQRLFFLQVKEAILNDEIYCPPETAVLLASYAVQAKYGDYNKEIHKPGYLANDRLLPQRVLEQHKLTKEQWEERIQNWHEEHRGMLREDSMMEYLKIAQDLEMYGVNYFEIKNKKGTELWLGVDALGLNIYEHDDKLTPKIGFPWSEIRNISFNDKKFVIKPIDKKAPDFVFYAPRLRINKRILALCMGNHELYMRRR

[3] = target: G3BP1 NTF2 domain (human, UniProt Q13283 11-133)
[4] = target: T3, G3BP2 NTF2 domain (human, UniProt Q9UN86 11-133)
T3 sequence (looked up): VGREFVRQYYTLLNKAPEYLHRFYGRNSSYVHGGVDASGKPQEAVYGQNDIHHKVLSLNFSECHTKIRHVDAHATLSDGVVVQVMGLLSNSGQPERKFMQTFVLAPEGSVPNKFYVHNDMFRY

[5] = target: G3BP1 NTF2 domain, His-GST-tagged (human, UniProt Q13283 11-133)
[6] = target: T4, G3BP2 NTF2 domain, His-GST-tagged (human, UniProt Q9UN86 11-133)
T4 sequence (looked up): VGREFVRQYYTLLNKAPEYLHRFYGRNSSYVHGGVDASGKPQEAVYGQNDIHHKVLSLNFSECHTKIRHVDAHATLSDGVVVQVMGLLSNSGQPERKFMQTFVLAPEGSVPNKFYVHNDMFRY

[7] = target: T5, Radixin FERM domain (human, UniProt P35241 5-295)
T5 construct: also called RDX
T5 sequence (P35241 5-295): as the sequence (P35241 5-295) above

[8] = target: USP7 MATH domain (human, UniProt Q93009 68-195)
[9] = target: Ezrin FERM domain (human, UniProt P15311 2-296)
Target sequence in this assay (P15311 2-296): as the sequence (P15311 2-296) above

Chain of G3BP1 NTF2 domain (Q13283 11-133): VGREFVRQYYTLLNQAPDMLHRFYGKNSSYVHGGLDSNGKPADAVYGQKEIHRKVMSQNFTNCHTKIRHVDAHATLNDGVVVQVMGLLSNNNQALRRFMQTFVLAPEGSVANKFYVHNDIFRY
Chain of USP7 MATH domain (Q93009 68-195): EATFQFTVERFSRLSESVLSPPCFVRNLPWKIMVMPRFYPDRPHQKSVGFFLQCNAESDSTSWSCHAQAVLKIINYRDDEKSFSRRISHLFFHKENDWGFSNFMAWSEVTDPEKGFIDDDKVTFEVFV
Chain of G3BP1 NTF2 domain, His-GST-tagged (Q13283 11-133): as the sequence (Q13283 11-133) above

Binder: {FITC}-YYSVNTFKEHHSTPTI (also called Kirrel probe peptide) [Kirrel FITC-YYSVNTFKEHHSTPTI]
- Kd [1]: 1.4 ± 0.1 µM
- Kd [2]: 0.485 ± 0.003 µM

Binder: PSKLPTFGAPEQLVDY [TRIM25 peptide 400-414]
- IC50 [3]: 120 µM
- Ki [3]: 46 µM
- IC50 [4]: 53 µM
- Ki [4]: 17 µM

Binder: {FITC}-APRITFGGPSDS [N FITC-APRITFGGPSDS]
- Kd [5]: 3.2 ± 0.1 µM
- Kd [6]: 2.1 ± 0.1 µM

Binder: NLQFGALQFGSEPVY [UBAP2L peptide 515-528]
- IC50 [3]: 104 µM
- IC50 [4]: 79 µM
- Ki [4]: 32 µM

Binder: PVPPIEFGVSPKDSDY [PRRC2B peptide 1780-1794]
- IC50 [4]: 53 µM
- Ki [4]: 19 µM

Binder: {FITC}-YYSVNTFKEHHSTPTI [FITC-Kirrel3 peptide 668-683]
- Kd [7]: 0.485 µM

Binder: ESLPFSFGTLSSWELE [DDIT3 peptide 4-19]
- IC50 [4]: 30 µM
- Ki [4]: 12 µM

Binder: {FITC}-DYSQPSTSSSIIY (also called MDM2 probe peptide) [MDM2 FITC-DYSQPSTSSSIIY]
- Kd [8]: 0.49 ± 0.06 µM

Binder: VDTSNSFEVLAVEDTQY [NSP3 peptide 1996-2011 (Sars-CoV)]
- IC50 [9]: 200 µM
- Ki [9]: 218 µM
- IC50 [7]: 200 µM
- Ki [7]: 56.2 µM

Binder: APRITFGGPTDSTDNY [N peptide 13-27 (Sars-CoV)]
- IC50 [3]: 10 µM

Binder: QGLPLEFGASAETVRY [NSP3 peptide 958-972 (Sars-CoV)]
- IC50 [3]: 320 µM
- Ki [3]: 119 µM
- IC50 [4]: 130 µM
- Ki [4]: 47 µM

Binder: AQMQGPYNFIQDSMLD [CAPRIN1 peptide 364-379]
- IC50 [4]: 29 µM

Binder: APRAVTFGDNNDNNTY [N peptide 6-20 (Mers1)]
- IC50 [3]: 130 µM
- Ki [3]: 51 µM
- IC50 [4]: 80 µM
